The results in this text go back to US20220056125A1 (CEPHALON, published 2022).

Changes are numbered by the printed parent chain.

First the molecules themselves.
B1: Ab303 (antibody, human IgG4, V domains shown)
VH: QVTLKESGPGILQPSHTLSLTCSFSGFSLSTYGMGVSWIRQPSGKGLEWLASIWWNGNTYNNPSLKSRLTVSKDTSNNQAFLKVTSVDTADTATYYCAHTPNLGNWFAYWGQGTLVTVSS
VL: DIQMTQSPSFLSASVGERVTLSCKTSQKINRYLDWYQQKLGEAPKLLIYNTNNLHTGIPSRFSGSGSGTDYTLTISSLQPEDVATYFCLQHSSWPTFGAGTKLELK
notes: also called Anti-PAR-2 antibody # 303
B2: Ab225 (antibody, human IgG4, V domains shown)
VH: QVQLKESGPGLVQPSQTLSLTCTVSGFSLTSYHVSWVRQSPGKGLEWMGIIWTGGSTAYNSLLKSRLSISRDTSKSQVFLKMNSLQTEDTATYYCARRGAYPFYFDYWGQGVMVTVSS
VL: EIVLTQSPTTMAASPGEKVTITCRASSSVRSMYWYQQKSGASPKPWIYETSKLTSGVPDRFSGSGSGTSYSFTISSMGTEDAGTYYCHQWTTTPYTFGAGTKLELK
notes: also called Anti-PAR-2 antibody # 225
B3: Ab245 (antibody, human IgG4, V domains shown)
VH: B2 VH with S19F, S40P, S65P, S68T, Q86R, A100L
VL: EVVLTQSPTTMAASPGEKVTITCRATSSVSHMYWYQQKSGASPKPWIYETSKLASGVPDRFRGSGSGTSYSFTISSMETEDVATYYCHQWSSFPYTFGPGTKLELK
notes: also called Anti-PAR-2 antibody # 245
B4: Ab248 (antibody, human IgG4, V domains shown)
VH: B2 VH with S31N, S40P, A100L, F103Y
VL: B2 VL with M11L, S28R, R30S, S31N, P45A, T54A, G78E, G83A, T92S
notes: also called Anti-PAR-2 antibody # 248
B5: Ab201 (antibody, human IgG4, V domains shown)
VH: QVQLQQSGPELVKPGASVKISCKASGFSFTSFYIHWVNQRPGQGLEWIGWIYPGSGNTLYNEKFKGKATLTADTSSSTAYIHLSSLTSEDSAVYYCTRGPLFYGSSHWYFDVWGMGTTVTVSS
VL: EVQITQSPSYLAASPGETITINCRASKSISKYLAWYQEKPGKTNKLLIYSGSTLQSGIPSRFSGSGSGTDFTLTISSLEPEDFAMYYCQQHNKYPLTFGAGTRLELK
B6: Ab335 (antibody, human IgG4, V domains shown)
VH: QVQLKESGPGLVQPSQTLSLSCTVSGFSLSTYGVIWVRQPPGKGLEWMGVIWGNGNTNYNSALKSRLSISRDTSKSQVFLKMNNLQSEDTAMYFCGRWRGYKDYPFDYWGQGVKVTVSS
VL: DIQMTQSPSFLSASVGDRVTINCKASRNIYKYLDWYQQKLGEAPKLLIYNTNNLHTGIPSRFSGSGSGTDFTLTISSLQPEDVATYFCLQHNSGWTFGGGTKLELK
notes: also called Anti-PAR-2 antibody # 335
B7: Ab234 (antibody, human IgG4, V domains shown)
VH: EVQLVETGGGLVQPGRSLKLSCVASGFTFNNYWLYWIRQAPGKGLEWVSSINNDGGGTYYPDSVKGRFTVSRDNAENTVYLQMNSLRSEDTATYYCARDRAFIRGRFAYWGQGTLVTVSS
VL: EIVLTQSPTTMAASPGEKVTLTCRASSSVIYMHWYQQRSGASPKLWIYETSKLASGVPNRFGGSGSGTSYSLTINSMETEDAATYYCQQGSYYPWTFGGGTKLELK
notes: also called Anti-PAR-2 antibody # 234
B8: Ab261 (antibody, human IgG4, V domains shown)
VH: EVQLVESGGGLVQPGRSLKLSCVASGFTFNNYWMTWIRQAPGKGLEWVASITNTGGNTYYPDSVKGRFTISRDNAKSTLYLQMNSLRSEDTATYYCTRDRIIRGADWFAYWGQGTLVTVSS
VL: DIQMTQSPHSLSASLGETVSIECLASEGISNYLAWFQQKPGKSPQLLIYYASSLQDGVPSRFSGSGSGTQYSLKISNMQPEDEGVYYCQQGYKYPWTFGGGTKLELK
notes: also called Anti-PAR-2 antibody # 261
B9: Ab228 (antibody, human IgG4, V domains shown)
VH: B8 VH with A24V, T54S, A105S, D106T
VL: B8 VL with F36Y, Q89H
B10: Ab380 (antibody, human IgG4, V domains shown)
VH: B8 VH with S25T, T54S, N74D, D99V, I101V, I102Y, R103Y, A105S, D106N, A109V
VL: B8 VL
notes: also called Anti-PAR-2 antibody # 380
B11: Ab227 (antibody, human IgG4, V domains shown)
VH: B8 VH with T54S, N57R, I70V, N74S, A105S, D106T, A109T
VL: B8 VL with K103E
notes: also called Anti-PAR-2 antibody # 227
B12: Ab435 (antibody, human IgG4, V domains shown)
VH: B8 VH with A24G, K43W, N57R, I101V, I102Y, R103Y, A105S, D106N, A109V
VL: B8 VL with F36Y, V85I, G91H
B13: Ab192 (antibody, human IgG4, V domains shown)
VH: QVQLQQPGTELVKPGASVKLSCKASGYTFTSYWMHWIKQRPGQGLEWIGNINPSSGGTNYNEKFKTKATLTVDKSSSTAYMQLSSLTSEDSAVYYCAGEAYSNYVAWFAYWGQGTLVTVSS
VL: ENVLTQSPAIMSASLGEKVTMSCRASSSVNYMYWYQQKSDASPKLWIYYTSNLAPGVPARFSGSGSGTSYSLTISSMEGEDAATYYCQQFTTSPYTFGGGTKLEIK
notes: also called Anti-PAR-2 antibody # 192
B14: Ab209 (antibody, human IgG4, V domains shown)
VH: B13 VH with S55T, G57S, Y60F, E62V, A79T, S84N
VL: B13 VL with Q36R, A59T
notes: also called Anti-PAR-2 antibody # 209
B15: Ab140 (antibody, human IgG4, V domains shown)
VH: EVQLVESGGGLVQPKGSLKLSCAASGFTFNSYAMHWVRQAPGKGLEWVACIRSKSSYYATYYADSVKDRFTISRHDSQSMLYLQMNNLKTEDTAMYYCVREDYYGSSYDYWGQGTTLTVSS
VL: QIVLTQSPAIMSASLGERVTMTCTASSSVSSSYLHWYQQKPGSSPKLWIYATSNLASGVPARFSGSGSGTSYSLTISSMEAEDAATYYCHQYHRSPLTFGAGTKLELK
notes: also called Anti-PAR-2 antibody # 140
B16: Ab189 (antibody, human IgG4, V domains shown)
VH: B15 VH with S31T, C50R, S55T, S56T, Y57N, H75D, M85I, N86S, Y108L
VL: B15 VL with S30I, Y50F, A51S, S78T
notes: also called Anti-PAR-2 antibody # 189
B17: Ab5 (antibody, human IgG4, V domains shown)
VH: QVQLQQPGSELVKPGASVKLSCKASGYTFTNYWMHWVKQRPGQGLEWIGMIHPNSDFSNYNEKFKKKATLTVDKSSSTAYMQLSSLTSEDSAVYFCAKGPNYYGSRYWYFDVWGTGTTVTVSS
VL: DIVLTQSPTSLAVSLGQRATISCRASESVDSYGNSFLHWYQQKAGQPPKLLIYRTSNLESGIPARFSGSGSRTDFTLTINPVEADDVATYFCQQSNEDPYTFGGGTKLELK
notes: also called Anti-PAR-2 antibody # 5

For the first test, the target named is T1, human PAR-1 (human, UniProt P25116 22-425).
T1 construct: also called huPAR-1
T1 sequence: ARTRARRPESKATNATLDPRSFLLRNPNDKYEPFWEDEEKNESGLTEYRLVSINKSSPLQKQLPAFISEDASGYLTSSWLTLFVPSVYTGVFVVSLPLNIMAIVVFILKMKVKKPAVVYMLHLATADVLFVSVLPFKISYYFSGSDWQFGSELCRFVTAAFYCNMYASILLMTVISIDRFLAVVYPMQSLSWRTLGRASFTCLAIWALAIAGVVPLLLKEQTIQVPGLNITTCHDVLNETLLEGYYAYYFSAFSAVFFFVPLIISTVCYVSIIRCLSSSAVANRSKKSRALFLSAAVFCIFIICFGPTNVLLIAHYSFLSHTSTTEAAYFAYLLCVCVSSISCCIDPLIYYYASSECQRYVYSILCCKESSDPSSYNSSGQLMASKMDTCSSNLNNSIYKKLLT
The test is described as follows: flow cytometry, transfected Expi293F cells. Here is the method: Paired heavy and light chains encoded by these sequence pairs were expressed as a full length human IgG4 isotype antibodies and assessed for PAR-2 binding and selectivity by flow cytometry. […] Cells were used for flow cytometric analysis 36-48 hours post-transfection. Use of Nt-PAR-2 as a target allowed antibodies which bound the N-terminal residues of PAR-2 (which comprise the protease-cleavage sites on PAR-2) to be distinguished from antibodies which bound other extracellular sites on PAR-2, such as the PAR-2-activating ligand-binding site(s). Expi293F cells, transiently expressing one of each of the different target proteins were labelled with different intensities of a single fluorphor Encoder dye (Intellicyt) for 10 mins at either 1 in 250 dilution for high intensity and/or 1 in 1500 dilution for moderate intensity, enabling simultaneous analysis of multiple cell populations. After washing the cells were then mixed in an equal ratio with the unlabeled cell type and analyzed for antibody binding.
The cells were plated in 96 well plates at 2×10⁵ cells/well. Following a wash step using Phosphate buffered saline (PBS), the primary antibody (anti-PAR-2 antibody) was added at a concentration of 10 μg/mL in 50 μL of FACS buffer (0.5% w/v BSA in PBS) to each well and incubated for 10-15 mins. Following a wash step, secondary antibody (anti-human Fc-FITC) was added to the wells at 1:200 dilution in 50 μL for 10-15 mins. Following a washing step, the cells were re-suspended in fluorescence-activated cell sorting (FACS) buffer. The flow cytometry analysis was performed on an Intellicyt iQue screener. Gates were drawn around the different intensities of encoder dye-positive cells and these populations were analyzed separately from each other and the unlabeled cells for binding by the primary antibody.
(In general: A flow cytometer gives signals particle by particle.)
B1: the binding result is “no binding (tested: 10 µg/mL)”.

As to B2, the binding result is reported as “no binding (tested: 10 µg/mL)”.

Consider B3, for which the binding result is reported as “no binding (tested: 10 µg/mL)”.

On to B4, for which the binding result was “no binding (tested: 10 µg/mL)”.

For the molecule B5, the binding result was “no binding (tested: 10 µg/mL)”.

Regarding B6, the binding result is “no binding (tested: 10 µg/mL)”.

Regarding B7, the binding result is given as “no binding (tested: 10 µg/mL)”.

As for B8, the binding result is given as “no binding (tested: 10 µg/mL)”.

As for B9, the binding result is on record as “no binding (tested: 10 µg/mL)”.

In the case of B10, the binding result is given as “no binding (tested: 10 µg/mL)”.

With B11, the binding result is listed as “no binding (tested: 10 µg/mL)”.

As for B12, the binding result was “no binding (tested: 10 µg/mL)”.

For B13, the binding result is reported as “no binding (tested: 10 µg/mL)”.

In the case of B14, the binding result is reported as “no binding (tested: 10 µg/mL)”.

In the case of B15, the binding result was “no binding (tested: 10 µg/mL)”.

On to B16, for which the binding result is recorded as “no binding (tested: 10 µg/mL)”.

In the case of B17, the binding result is reported as “no binding (tested: 10 µg/mL)”.

Another test has as its target T2, human PAR-2 (human, UniProt P55085 26-397).
T2 sequence: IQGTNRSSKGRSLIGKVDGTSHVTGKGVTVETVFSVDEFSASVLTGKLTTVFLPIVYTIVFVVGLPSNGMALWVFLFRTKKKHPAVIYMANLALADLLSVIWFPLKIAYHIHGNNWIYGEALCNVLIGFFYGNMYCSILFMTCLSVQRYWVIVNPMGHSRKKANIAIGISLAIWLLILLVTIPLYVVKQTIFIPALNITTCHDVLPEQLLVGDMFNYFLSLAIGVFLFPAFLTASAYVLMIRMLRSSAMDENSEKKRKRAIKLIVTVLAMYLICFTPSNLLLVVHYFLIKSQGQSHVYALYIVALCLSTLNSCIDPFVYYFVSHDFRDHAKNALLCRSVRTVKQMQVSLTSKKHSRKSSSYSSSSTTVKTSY
The test is described as follows: cell-based or functional assay.
With B1, the “IC50, PAR-2 β-arrestin cell assay” value is 9 nM.

Take B2: the “IC50, PAR-2 β-arrestin cell assay” value is 3.4 nM.

Regarding B3, the “IC50, PAR-2 β-arrestin cell assay” value was 3.8 nM.

For the molecule B4, the “IC50, PAR-2 β-arrestin cell assay” value amounted to 4.6 nM.

As for B5, the “IC50, PAR-2 β-arrestin cell assay” value worked out at 10.7 nM.

On to B6, for which the “IC50, PAR-2 β-arrestin cell assay” value is 2.5 nM.

As to B7, the “IC50, PAR-2 β-arrestin cell assay” value was determined as 4.8 nM.

Regarding B8, the “IC50, PAR-2 β-arrestin cell assay” value came to 19.9 nM.

On to B9, for which the “IC50, PAR-2 β-arrestin cell assay” value stood at 33.3 nM.

Turning to B10, the “IC50, PAR-2 β-arrestin cell assay” value is 57.1 nM.

Consider B11, for which the “IC50, PAR-2 β-arrestin cell assay” value is 10.2 nM.

As for B12, the “IC50, PAR-2 β-arrestin cell assay” value is 53.8 nM.

With B13, the “IC50, PAR-2 β-arrestin cell assay” value came to 100 nM.

Take B14: the “IC50, PAR-2 β-arrestin cell assay” value came to 65.5 nM.

For the molecule B15, the “IC50, PAR-2 β-arrestin cell assay” value is 20.1 nM.

Turning to B16, the “IC50, PAR-2 β-arrestin cell assay” value came out at 123 nM.

Regarding B17, the “IC50, PAR-2 β-arrestin cell assay” value came out at 23.1 nM.
